Source: US20240116985A1 (published 2024)
Starred links: 1 amine or outer side, 2 acyl side, 3 side chain; linkers in the order of their positions; H or OH if unused. Positions of bridges follow the written chain, without caps; N, C: chain ends. Non-standard residues stand in square brackets, D forms with d. Primed or numbered codes have the meaning given here. *: point of attachment. PyrS2″ = (S)-3-amino-1-((pent-4-en-1-yloxy)carbonyl)pyrrolidine-3-carboxylic acid (stapling residue), C=CCCCOC(=O)N1CC[C@@](N[*:1])(C(=O)[*:2])C1; B5(4) = 2,2-bis(4-pentenyl)glycine = 2-amino-2-(pent-4-en-1-yl)hept-6-enoic acid (stitching residue), C=CCCCC(CCCC=C)(N[*:1])C(=O)[*:2]; TfeGA = (S)-2-amino-3-((carboxymethyl)(2,2,2-trifluoroethyl)amino)propanoic acid, O=C([C@H](CN(CC(=O)[*:3])CC(F)(F)F)N[*:1])[*:2]; PyrS2 = (S)-3-amino-1-((pent-4-en-1-yloxy)carbonyl)pyrrolidine-3-carboxylic acid, C=CCCCOC(=O)N1CC[C@@](N[*:1])(C(=O)[*:2])C1; B5(3) = 2,2-bis(4-pentenyl)glycine (stitching residue), C=CCCCC(CCCC=C)(N[*:1])C(=O)[*:2]; AcLys″ = N6-acetyl-lysine, CC(=O)NCCCC[C@H](N[*:1])C(=O)[*:2]; Phe(3-COOH) = N[C@@H](Cc1cccc(C(=O)O)c1)C(=O)O; 2F3MeF = Cc1cccc(C[C@H](N[*:1])C(=O)[*:2])c1F; Phe(2-CF3) = N[C@@H](Cc1ccccc1C(F)(F)F)C(=O)O; Phe(2-Cl) = N[C@@H](Cc1ccccc1Cl)C(=O)O; Bta = N[C@@H](Cc1csc2ccccc12)C(=O)O; Lys(iPr) = CC(C)NCCCC[C@H](N)C(=O)O; αAllylPro = C=CC[C@@]1(C(=O)O)CCCN1; tBuAla = CC(C)(C)C[C@H](N)C(=O)O; 3Thi = N[C@@H](Cc1ccsc1)C(=O)O; S8 = C=CCCCCCC[C@](C)(N)C(=O)O; Thr(ol) = C[C@@H](O)[C@H](N)CO; PyrS2(4) = not defined here; TfeGA″ = not defined here; hSer = N[C@@H](CCO)C(=O)O; Abu = CC[C@H](N)C(=O)O; Alaol = C[C@@H](CO)N*; Aib = CC(C)(N)C(=O)O

Legend:
Experiment in all cases: cell-based or functional assay
[1] = molecular target: T1, beta-catenin in DLD1 TCF/LEF luciferase reporter cells (UniProt P35222 1-781)
T1 sequence (looked up): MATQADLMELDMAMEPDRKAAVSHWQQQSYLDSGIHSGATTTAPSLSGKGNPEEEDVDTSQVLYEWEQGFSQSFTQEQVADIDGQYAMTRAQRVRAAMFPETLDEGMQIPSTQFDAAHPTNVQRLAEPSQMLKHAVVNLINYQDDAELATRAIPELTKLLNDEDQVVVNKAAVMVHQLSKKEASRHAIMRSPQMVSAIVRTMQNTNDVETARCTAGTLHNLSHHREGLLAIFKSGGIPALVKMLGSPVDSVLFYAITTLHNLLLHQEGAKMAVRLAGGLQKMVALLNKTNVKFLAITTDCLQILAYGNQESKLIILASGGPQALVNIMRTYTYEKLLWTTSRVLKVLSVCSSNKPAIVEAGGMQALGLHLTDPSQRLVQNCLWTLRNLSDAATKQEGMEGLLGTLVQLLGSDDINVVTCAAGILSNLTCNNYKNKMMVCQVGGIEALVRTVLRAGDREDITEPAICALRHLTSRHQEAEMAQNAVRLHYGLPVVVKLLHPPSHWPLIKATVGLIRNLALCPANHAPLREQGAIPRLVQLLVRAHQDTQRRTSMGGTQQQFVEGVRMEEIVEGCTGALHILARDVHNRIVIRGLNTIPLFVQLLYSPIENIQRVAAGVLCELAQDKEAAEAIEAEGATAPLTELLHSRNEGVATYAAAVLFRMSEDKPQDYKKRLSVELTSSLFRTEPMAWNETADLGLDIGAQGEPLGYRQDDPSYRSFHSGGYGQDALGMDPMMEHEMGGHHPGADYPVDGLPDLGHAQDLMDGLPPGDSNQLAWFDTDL

[2] = molecular target: T2, Bcat-Halo (beta-catenin HaloTag construct transfected into HEK293 cells) (UniProt P35222 1-781)
T2 sequence (looked up): T1 sequence (looked up)

[3] = molecular target: T3, beta-catenin in DLD1 TCF/LEF luciferase reporter cells (UniProt P35222 1-781); remark: listed apart in the source
T3 sequence (looked up): T1 sequence (looked up)

[4] = molecular target: T4, beta-catenin in DLD1 TCF/LEF luciferase reporter cells (Homo sapiens (Human), UniProt P35222 1-781)
T4 sequence: T1 sequence (looked up)

B-cat-Halo [5] = molecular target: T5, B-cat-Halo (Homo sapiens (Human), UniProt P35222 1-781)
T5 sequence: T1 sequence (looked up)

[6] = molecular target: T6, beta-catenin in DLD1 TCF/LEF luciferase reporter cells (UniProt P35222 1-781); remark: listed apart in the source
T6 sequence (looked up): T1 sequence (looked up)

B-cat-Halo [7] = molecular target: T7, B-cat-Halo (UniProt P35222 1-781)
T7 sequence (looked up): T1 sequence (looked up)

[8] = molecular target: T8, beta-catenin in DLD1 TCF/LEF luciferase reporter cells (Homo sapiens (Human), UniProt P35222 1-781); remark: listed apart in the source
T8 sequence: T1 sequence (looked up)

[9] = molecular target: T9, beta-catenin in DLD1 TCF/LEF luciferase reporter cells (UniProt P35222 1-781); remark: listed apart in the source
T9 sequence (looked up): T1 sequence (looked up)

[10] = molecular target: T10, B-cat-Halo (beta-catenin HaloTag NanoBRET construct expressed in HEK293 cells) (UniProt P35222 1-781)
T10 sequence (looked up): T1 sequence (looked up)

B-cat-Halo [11] = molecular target: T11, B-cat-Halo (UniProt P35222 1-781); remark: listed apart in the source
T11 sequence (looked up): T1 sequence (looked up)

[12] = molecular target: T12, beta-catenin in DLD1 TCF/LEF luciferase reporter cells (UniProt P35222 2-781)
T12 sequence (looked up): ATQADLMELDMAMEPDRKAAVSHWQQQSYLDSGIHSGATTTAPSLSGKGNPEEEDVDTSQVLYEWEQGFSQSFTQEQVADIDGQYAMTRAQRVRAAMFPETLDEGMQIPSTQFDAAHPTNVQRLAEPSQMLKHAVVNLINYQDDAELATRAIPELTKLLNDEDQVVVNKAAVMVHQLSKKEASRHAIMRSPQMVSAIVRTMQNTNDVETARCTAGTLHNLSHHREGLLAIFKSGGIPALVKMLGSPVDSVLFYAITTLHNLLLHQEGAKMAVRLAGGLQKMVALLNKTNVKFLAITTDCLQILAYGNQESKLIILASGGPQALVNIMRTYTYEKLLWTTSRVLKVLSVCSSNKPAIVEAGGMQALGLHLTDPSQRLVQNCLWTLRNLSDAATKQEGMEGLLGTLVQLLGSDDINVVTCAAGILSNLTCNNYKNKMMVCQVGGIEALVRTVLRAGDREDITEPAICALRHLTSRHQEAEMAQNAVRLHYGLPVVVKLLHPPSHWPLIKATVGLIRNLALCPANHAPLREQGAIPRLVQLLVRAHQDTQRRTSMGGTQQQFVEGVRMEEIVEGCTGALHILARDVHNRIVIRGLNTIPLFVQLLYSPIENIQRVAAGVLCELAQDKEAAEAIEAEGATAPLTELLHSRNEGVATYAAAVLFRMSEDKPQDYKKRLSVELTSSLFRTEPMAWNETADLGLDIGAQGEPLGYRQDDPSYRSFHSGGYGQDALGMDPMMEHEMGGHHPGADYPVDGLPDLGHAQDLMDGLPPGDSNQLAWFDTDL

B1: I-1461 (peptide)
peptide: Ac-[αAllylPro]D[tBuAla][B5(4)]D[TfeGA]AAFL[PyrS2][3Thi][Bta]Q-NH2
modifications: staple 1-4, 4-11
DLD1 4% Abs IC50 [1]: 1.7 µM | NanoBRET Abs IC50 [2]: 3.7 µM

B2: I-1466 (peptide)
peptide: Ac-[αAllylPro]D[tBuAla][B5(4)]D[Phe(3-COOH)]AAFL[PyrS2(4)][2F3MeF][Bta]Q-NH2
modifications: staple 1-4, 4-11; not fully specified; printed as Ac-PL3-Asp-Npg-B5-Asp-3COOHF-Ala-Ala-Phe-Leu-PyrS2-2F3MeF-BztA-Gln-NH2; reading uncertain
DLD1 4% Abs IC50 [1]: 0.7 µM

B3: I-993 (peptide)
peptide: Ac-[αAllylPro]D[tBuAla][B5(3)]D[TfeGA]AAF[hSer][PyrS2″][Phe(2-Cl)][Bta][hSer]-NH2
modifications: staple 1-4, 4-11
DLD1 reporter assay Abs IC50 [3]: 4.4 µM

B4: I-2047 (peptide)
peptide: Ac-[αAllylPro]D[tBuAla][B5(3)]D[Phe(3-COOH)]AAFL[PyrS2(4)][3Thi][Bta]NAA[dA]-NH2
modifications: staple 1-4, 4-11; reading uncertain
DLD1 4% Abs IC50 [4]: 1.3 µM | NanoBRET Abs IC50 (B-cat-Halo [5]): 2.6 µM

B5: I-1706 (peptide)
peptide: Ac-[αAllylPro]D[tBuAla][B5(4)]D[TfeGA″]AAFL[PyrS2″][3Thi][Bta]T-NH2
modifications: staple 1-4, 4-11; reading uncertain
DLD1 4% Abs IC50 [6]: 2.7 µM | NanoBRET Abs IC50 (B-cat-Halo [7]): 4.8 µM

B6: I-1242 (peptide)
peptide: Ac-[αAllylPro]D[tBuAla][B5(4)]D[TfeGA]AAFT[PyrS2″][Phe(2-Cl)][Bta]-Alaol
modifications: staple 1-4, 4-11
DLD1 4% Abs IC50 [8]: 3.8 µM

B7: Ac-PL3-Asp-Npg-B5-Asp-3COOHF-Aib-Ala-Phe-Abu-PyrS2-2F3MeF-BztA-Me2Gln-Ala-NH2 (peptide)
peptide: Ac-[αAllylPro]D[tBuAla][B5(3)]D[Phe(3-COOH)][Aib]AF[Abu][PyrS2″][Phe(2-CF3)][Bta][Me2Gln]A-NH2
modifications: staple 1-4, 4-11
DLD1 4% Abs IC50 [9]: 6.4 µM | NanoBRET Abs IC50 [10]: 6.2 µM

B8: I-1629 (peptide)
peptide: Ac-[αAllylPro]D[tBuAla][B5(3)]D[(Tfb)GA]AAFL[PyrS2″][3Thi][Bta]Q-NH2
modifications: staple 1-4, 4-11
NanoBRET Abs IC50 (B-cat-Halo [11]): 4.3 µM | DLD1 4% Abs IC50 [12]: 2.7 µM

B9: I-2041 (peptide)
peptide: Ac-[αAllylPro]D[tBuAla][B5(3)]D[Phe(3-COOH)]AAFL[PyrS2″][Phe(2-Cl)][Bta]NAA[dA]-NH2
modifications: staple 1-4, 4-11
DLD1 4% Abs IC50 [4]: 1.9 µM

B10: I-1709 (peptide)
peptide: Ac-[αAllylPro]D[tBuAla][B5(4)]D[TfeGA]AAFL[PyrS2″][3Thi][Bta][AcLys″]-NH2
modifications: staple 1-4, 4-11
DLD1 4% Abs IC50 [6]: 3.9 µM | NanoBRET Abs IC50 (B-cat-Halo [7]): 6.2 µM

B11: I-1632 (peptide)
peptide: Ac-[αAllylPro]D[tBuAla][B5(3)]D[(Pfbn)GA]AAFL[PyrS2″][3Thi][Bta]Q-NH2
modifications: staple 1-4, 4-11
NanoBRET Abs IC50 (B-cat-Halo [11]): 6.5 µM | DLD1 4% Abs IC50 [12]: 2.6 µM

B12: I-1244 (peptide)
peptide: Ac-[αAllylPro]D[tBuAla][B5(4)]DDAAFT[PyrS2″][Phe(2-Cl)][Bta]S-NHEt
modifications: staple 1-4, 4-11
DLD1 4% Abs IC50 [8]: 15.9 µM

B13: I-996 (peptide)
peptide: Ac-[αAllylPro]D[tBuAla][B5(3)]D[TfeGA]AAF[hSer][S8][Phe(2-Cl)][Bta]Q-NH2
modifications: staple 1-4, 4-11
DLD1 reporter assay Abs IC50 [3]: 10.8 µM

B14: I-988 (peptide)
peptide: Ac-[αAllylPro]D[tBuAla][B5(3)]D[TfeGA]AAFF[PyrS2″]F[Bta]Q-NH2
modifications: staple 1-4, 4-11
DLD1 reporter assay Abs IC50 [3]: 5.2 µM

B15: I-1710 (peptide)
peptide: Ac-[αAllylPro]D[tBuAla][B5(4)]D[TfeGA]AAFL[PyrS2″][3Thi][Bta]A-NH2
modifications: staple 1-4, 4-11
DLD1 4% Abs IC50 [6]: 1.9 µM | NanoBRET Abs IC50 (B-cat-Halo [7]): 3.9 µM

B16: I-1616 (peptide)
peptide: Ac-[αAllylPro]D[tBuAla][B5(3)]D[Phe(3-COOH)]AAFL[PyrS2(4)][2F3MeF][Bta][Lys(iPr)]-NH2
modifications: staple 1-4, 4-11; not fully specified; printed as Ac-PL3-Asp-Npg-B5-Asp-3COOHF-Ala-Ala-Phe-Leu-PyrS2-2F3MeF-BztA-iPrLys-NH2; reading uncertain
NanoBRET Abs IC50 (B-cat-Halo [11]): 4.5 µM | DLD1 4% Abs IC50 [12]: 2.8 µM

B17: I-2043 (peptide)
peptide: Ac-[αAllylPro]D[tBuAla][B5(3)]D[Phe(3-COOH)]AAFL[PyrS2″][3Thi][Bta]N-NH2
modifications: staple 1-4, 4-11
DLD1 4% Abs IC50 [4]: 1 µM | NanoBRET Abs IC50 (B-cat-Halo [5]): 2.8 µM

B18: I-1245 (peptide)
peptide: Ac-[αAllylPro]D[tBuAla][B5(4)]DDAAFT[PyrS2″][Phe(2-Cl)][Bta][Thr(ol)]
modifications: staple 1-4, 4-11
DLD1 4% Abs IC50 [8]: 4.1 µM

B19: Ac-PL3-Asp-Npg-B5-Asp-3COOHF-Aib-Ala-Phe-Abu-PyrS2-3Thi-BztA-Me2Gln-Ala-NH2 (peptide)
peptide: Ac-[αAllylPro]D[tBuAla][B5(3)]D[Phe(3-COOH)][Aib]AF[Abu][PyrS2″][3Thi][Bta][Me2Gln]A-NH2
modifications: staple 1-4, 4-11
DLD1 4% Abs IC50 [9]: 0.6 µM | NanoBRET Abs IC50 [10]: 2.3 µM

B20: I-1462 (peptide)
peptide: Ac-[αAllylPro]D[tBuAla][B5(4)]D[Phe(3-COOH)]AAFL[PyrS2″][3Thi][Bta]Q-NH2
modifications: staple 1-4, 4-11
DLD1 4% Abs IC50 [1]: 2.7 µM | NanoBRET Abs IC50 [2]: 2.3 µM
